Source: article PMC11080044, “Contribution of a C-Terminal Extension to the Substrate Affinity and Oligomeric Stability of Aldehyde Dehydrogenase from Thermus thermophilus HB27” (Biochemistry, 2024)

B1: ALDHTt-508, aldehyde dehydrogenase from Thermus thermophilus HB27 with a 22-amino acid truncation of the C-terminus (enzyme, UniProt Q72KD3 1-508, looked up)
chain: MRKAAGKYGNTLEFGHLVGGEEVLEGPLLERRNPSDREDVVARFPEADKDLVRKAALKAREAFAEWSRTPAPIRGQVLFNLVKILEREKPTLTRLMVREVGKTPKEAAGDVQEAIDTALFFASEGRRLYGQTVPSEMRDKELFTFRRPLGVVGIITAGNFPIAVPSWKLIPAVLTGNTVVWKPSEDAPTLSFVFAKLFEEAGLPPGVLNVVFGGGKGSTGQWMVELMDEGLFQKFAFTGSTQVGRWIGEVAGRNLIRPTLELGGKNPLVVMRDADLDLAVEGAWWSAFATGGQRCTSAGNILVDAPIYEEFKRRFLERVEATLVGNPLLHPEVTYGPFINERFFARWQEHYRVGEAEGARLLFGRGRITRENPYPRFLGDPEAGLYGWPTVWEVRPGTRLFTEEVFGPTINLVKVDGIEEAIAVANSTPYGLSSAIYTNHRHWAYLFKVGIRAGMTSINNATVGAEAHLPFGGVKASGNGGRESGIWVLEEYTYWHAVNEEYSGRLQL
notes: Aldehyde dehydrogenase ALDHTt of Thermus thermophilus strain HB27, UniProtKB Q72KD3, without the last 22 amino acids of the 530; also called truncated mutant
B2: Aldehyde dehydrogenase from Thermus thermophilus HB27, native (ALDHTt-native) (enzyme, UniProt Q72KD3 1-530, looked up)
chain: MRKAAGKYGNTLEFGHLVGGEEVLEGPLLERRNPSDREDVVARFPEADKDLVRKAALKAREAFAEWSRTPAPIRGQVLFNLVKILEREKPTLTRLMVREVGKTPKEAAGDVQEAIDTALFFASEGRRLYGQTVPSEMRDKELFTFRRPLGVVGIITAGNFPIAVPSWKLIPAVLTGNTVVWKPSEDAPTLSFVFAKLFEEAGLPPGVLNVVFGGGKGSTGQWMVELMDEGLFQKFAFTGSTQVGRWIGEVAGRNLIRPTLELGGKNPLVVMRDADLDLAVEGAWWSAFATGGQRCTSAGNILVDAPIYEEFKRRFLERVEATLVGNPLLHPEVTYGPFINERFFARWQEHYRVGEAEGARLLFGRGRITRENPYPRFLGDPEAGLYGWPTVWEVRPGTRLFTEEVFGPTINLVKVDGIEEAIAVANSTPYGLSSAIYTNHRHWAYLFKVGIRAGMTSINNATVGAEAHLPFGGVKASGNGGRESGIWVLEEYTYWHAVNEEYSGRLQLAQMDTGYVSPKAPTPWGEVLGL
notes: Aldehyde dehydrogenase ALDHTt of Thermus thermophilus strain HB27, UniProtKB Q72KD3, 530 amino acids, with its 30-residue C-terminal tail; pET22b(+) construct

Key:
Q72KD3 [1] = assay: SEC; SE-HPLC as in a1, after 5 min incubation at 65 °C and centrifugation at 10000 x g
Q72KD3 [2] = assay: SEC; SE-HPLC as in a1, after 10 min incubation at 65 °C and centrifugation at 10000 x g
Q72KD3 [3] = assay: SEC; SE-HPLC as in a1, after 15 min incubation at 65 °C and centrifugation at 10000 x g
Q72KD3 [4] = assay: SEC; SE-HPLC as in a1, after 20 min incubation at 65 °C and centrifugation at 10000 x g
[5] = target: the molecule itself; assay: SEC; SE-HPLC (AdvanceBio SEC 300 Å) of ALDHTt-508 purified after a 15 min heat shock of the lysate at 65 °C; 50 µL of 0.5 mg/mL, percent of total peak area
Q72KD3 [6] = assay: SEC; SE-HPLC (AdvanceBio SEC 300 Å), untreated protein injected directly after thawing, 0.5 mg/mL, 10 mM potassium phosphate buffer pH 8.0, room temperature; oligomeric states from a calibration plot, percent of peak area, triplicate
[7] = target: the molecule itself; assay: as above

Protein	% dimer (SE-HPLC) (Q72KD3 [1]) [%]	% monomer (SE-HPLC) (Q72KD3 [1]) [%]	% tetramer (SE-HPLC) (Q72KD3 [1]) [%]	% dimer (SE-HPLC) (Q72KD3 [2]) [%]	% monomer (SE-HPLC) (Q72KD3 [2]) [%]	% tetramer (SE-HPLC) (Q72KD3 [2]) [%]	% dimer (SE-HPLC) (Q72KD3 [3]) [%]	% monomer (SE-HPLC) (Q72KD3 [3]) [%]	% tetramer (SE-HPLC) (Q72KD3 [3]) [%]	% dimer (SE-HPLC) (Q72KD3 [4]) [%]	% monomer (SE-HPLC) (Q72KD3 [4]) [%]	% tetramer (SE-HPLC) (Q72KD3 [4]) [%]	% of fully folded protein in the tetrameric peak [5] [%]	% dimer (SE-HPLC) (Q72KD3 [6]) [%]	% monomer (SE-HPLC) (Q72KD3 [6]) [%]	% tetramer (SE-HPLC) (Q72KD3 [6]) [%]	stoichiometry N [7]
B1	0	0.87	95.4	0	0.79	93.1	0	0.55	95.8	0	0.71	91.4	6.4 ± 1.5	1.71	2.5	90	4
B2	0	0	97.7	0	0	94.9	0	0	93.7	0	0	93.2	–	0	0	98.8	4
